According to patent publication US20030105278A1 (MERK, published 2003):
Where two headings read alike, the source gives them in different places.

Legend:
[1] = target: T1, human MCH receptor expressed from the open reading frame cDNA SEQ. ID. NO. 1 in 293-AEQ17 cells (human, UniProt Q99705 1-353); experiment: cell-based or functional assay
[2] = target: T2, human MCH receptor (membranes from a stable CHO or HEK-293 cell line) (human, UniProt Q99705 1-353); experiment: competition vs [125I]-human MCH (Phe13,Tyr19); human MCH receptor cell membranes (Example 3); unit of the concentration '1' not given
T2 construct: whole, on cells; also called cloned human MCH receptor (CHO clone)

[3] = target: T1, human MCH receptor expressed from the …; experiment: cell-based or functional assay; remark: listed apart in the source
[4] = target: T2, human MCH receptor (membranes from a …); experiment: competition vs [125I]-human MCH (Phe13,Tyr19); human MCH receptor cell membranes (Example 3); unit of the concentration '1' not given; remark: listed apart in the source

T1 sequence (Q99705 whole entry): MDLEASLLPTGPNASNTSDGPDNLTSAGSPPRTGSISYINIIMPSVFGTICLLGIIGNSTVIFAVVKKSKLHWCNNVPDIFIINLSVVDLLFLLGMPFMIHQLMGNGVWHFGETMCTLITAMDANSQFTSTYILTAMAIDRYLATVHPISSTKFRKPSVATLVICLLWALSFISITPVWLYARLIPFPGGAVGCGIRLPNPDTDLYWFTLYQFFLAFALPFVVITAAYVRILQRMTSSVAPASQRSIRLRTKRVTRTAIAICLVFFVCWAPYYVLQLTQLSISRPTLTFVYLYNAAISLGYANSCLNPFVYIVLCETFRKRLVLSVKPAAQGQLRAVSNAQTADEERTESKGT
T2 sequence (Q99705 whole entry): as above

| Binder | Activation % [1] | EC50 [1] | % @ 1 (in the IC50 column) [2] | EC50 [3] | % @ 1 (in the IC50 column) [4] |
| --- | --- | --- | --- | --- | --- |
| RCMXGRVYRPC (N-methyl-leucine at position 9; N-terminal acetyl, C-terminal amide, Cys-Cys disulfide as in SEQ. ID. NO. 7, ID; NO; 7 peptide; MCH position numbering) [MCH analog SEQ. ID. NO. 26 (N-Me-Leu^9)] | 3% | > 10 µM | 10% | – | – |
| RCMLXRVYRPC (D-Glu at position 10; N-terminal acetyl, C-terminal amide, Cys-Cys disulfide as in SEQ. ID. NO. 7, ID; NO; 7 peptide; MCH position numbering) [MCH analog SEQ. ID. NO. 58 (position 10: D-Glu)] | – | – | – | > 10 µM | 40% |
